Laboratory results reported in US20260209386A1 (MYTHIC THERAPEUTICS, published 2026).

T1: Human PTK7 Protein, His Tag (Acro Biosystems) (human, UniProt Q13308 31-704)
T1 construct: Bought His-tagged protein; also called CCK4; not shown: His tag
T1 sequence: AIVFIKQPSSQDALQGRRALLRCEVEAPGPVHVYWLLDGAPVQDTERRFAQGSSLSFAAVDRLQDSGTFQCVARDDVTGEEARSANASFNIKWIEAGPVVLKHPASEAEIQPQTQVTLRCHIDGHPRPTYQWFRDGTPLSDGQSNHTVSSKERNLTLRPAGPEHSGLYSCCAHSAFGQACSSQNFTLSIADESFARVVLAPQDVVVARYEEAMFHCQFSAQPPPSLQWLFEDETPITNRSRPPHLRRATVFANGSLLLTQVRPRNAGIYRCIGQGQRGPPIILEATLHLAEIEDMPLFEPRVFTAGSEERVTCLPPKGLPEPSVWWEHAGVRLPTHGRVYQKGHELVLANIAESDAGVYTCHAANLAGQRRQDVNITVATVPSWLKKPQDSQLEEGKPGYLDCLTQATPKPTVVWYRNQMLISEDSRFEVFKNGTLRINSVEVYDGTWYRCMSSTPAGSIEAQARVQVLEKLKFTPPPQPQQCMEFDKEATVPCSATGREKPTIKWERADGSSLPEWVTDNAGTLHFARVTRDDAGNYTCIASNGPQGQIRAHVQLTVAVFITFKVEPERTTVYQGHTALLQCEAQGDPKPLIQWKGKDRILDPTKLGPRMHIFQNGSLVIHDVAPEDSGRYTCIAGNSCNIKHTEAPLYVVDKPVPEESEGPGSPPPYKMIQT


Target: T1, Human PTK7 Protein, His Tag (Acro …)
Test: BLI (Octet), antibody on anti-human Fc sensor, 50 nM PTK7; grade 2 = substantially similar binding relative to parent

| Binder | binding result |
| --- | --- |
| MYT11046 (antibody, V domains shown, MYT9361 HC variant) VH: EVQLVESGGGLVQPGGSLRLSCTASGLSLSSYWMSWVRQAPGKGLEWVGVISAGGNTYHANWAKGRFTISRDTSKNTVYLQMNSLRAEDTAVYFCARGDDGYTNAAYVSNLWGQGTLVTVSS VL: EIVMTQSPSTLSASVGDRVIITCQASQSISSWLSWYQQKPGKAPKLLIYKASTLASGVPSRFSGSGSGAEFTLTISSLQPDDFATYYCQSYFDSTTIAFGQGTKLTVL | binds |
| MYT11050 (antibody, V domains shown, MYT9361 HC variant) VH: EVQLVESGGGLVQPGGSLRLSCTASGLSLSSYWMSWVRQAPGKGLEWVGVISAGGNTYYANWHKGRFTISRDTSKNTVYLQMNSLRAEDTAVYFCARGDDGYTNAAYVSNLWGQGTLVTVSS VL: EIVMTQSPSTLSASVGDRVIITCQASQSISSWLSWYQQKPGKAPKLLIYKASTLASGVPSRFSGSGSGAEFTLTISSLQPDDFATYYCQSYFDSTTIAFGQGTKLTVL | binds |
| MYT11048 (antibody, V domains shown, MYT9361 HC variant) VH: EVQLVESGGGLVQPGGSLRLSCTASGLSLSSYWMSWVRQAPGKGLEWVGVISAGGNTYYAHWAKGRFTISRDTSKNTVYLQMNSLRAEDTAVYFCARGDDGYTNAAYVSNLWGQGTLVTVSS VL: EIVMTQSPSTLSASVGDRVIITCQASQSISSWLSWYQQKPGKAPKLLIYKASTLASGVPSRFSGSGSGAEFTLTISSLQPDDFATYYCQSYFDSTTIAFGQGTKLTVL | binds |
| MYT11060 (antibody, V domains shown, MYT9361 HC variant) VH: EVQLVESGGGLVQPGGSLRLSCTASGLSLSSYWMSWVRQAPGKGLEWVGVISAGGNTYYANWAKGRFTISRDTSKNTVYLQMNSLRAEDTAVYFCARGDDGYHNAAYVSNLWGQGTLVTVSS VL: EIVMTQSPSTLSASVGDRVIITCQASQSISSWLSWYQQKPGKAPKLLIYKASTLASGVPSRFSGSGSGAEFTLTISSLQPDDFATYYCQSYFDSTTIAFGQGTKLTVL | binds |
| MYT11049 (antibody, V domains shown, MYT9361 HC variant) VH: EVQLVESGGGLVQPGGSLRLSCTASGLSLSSYWMSWVRQAPGKGLEWVGVISAGGNTYYANHAKGRFTISRDTSKNTVYLQMNSLRAEDTAVYFCARGDDGYTNAAYVSNLWGQGTLVTVSS VL: EIVMTQSPSTLSASVGDRVIITCQASQSISSWLSWYQQKPGKAPKLLIYKASTLASGVPSRFSGSGSGAEFTLTISSLQPDDFATYYCQSYFDSTTIAFGQGTKLTVL | binds |
| MYT11065 (antibody, V domains shown, MYT9361 HC variant) VH: EVQLVESGGGLVQPGGSLRLSCTASGLSLSSYWMSWVRQAPGKGLEWVGVISAGGNTYYANWAKGRFTISRDTSKNTVYLQMNSLRAEDTAVYFCARGDDGYTNAAYHSNLWGQGTLVTVSS VL: EIVMTQSPSTLSASVGDRVIITCQASQSISSWLSWYQQKPGKAPKLLIYKASTLASGVPSRFSGSGSGAEFTLTISSLQPDDFATYYCQSYFDSTTIAFGQGTKLTVL | binds |
| MYT11067 (antibody, V domains shown, MYT9361 HC variant) VH: EVQLVESGGGLVQPGGSLRLSCTASGLSLSSYWMSWVRQAPGKGLEWVGVISAGGNTYYANWAKGRFTISRDTSKNTVYLQMNSLRAEDTAVYFCARGDDGYTNAAYVSHLWGQGTLVTVSS VL: EIVMTQSPSTLSASVGDRVIITCQASQSISSWLSWYQQKPGKAPKLLIYKASTLASGVPSRFSGSGSGAEFTLTISSLQPDDFATYYCQSYFDSTTIAFGQGTKLTVL | binds |
| MYT11052 (antibody, V domains shown, MYT9361 HC variant) VH: EVQLVESGGGLVQPGGSLRLSCTASGLSLSSYWMSWVRQAPGKGLEWVGVISAGGNTYYANWAKHRFTISRDTSKNTVYLQMNSLRAEDTAVYFCARGDDGYTNAAYVSNLWGQGTLVTVSS VL: EIVMTQSPSTLSASVGDRVIITCQASQSISSWLSWYQQKPGKAPKLLIYKASTLASGVPSRFSGSGSGAEFTLTISSLQPDDFATYYCQSYFDSTTIAFGQGTKLTVL | binds |
| MYT11051 (antibody, V domains shown, MYT9361 HC variant) VH: EVQLVESGGGLVQPGGSLRLSCTASGLSLSSYWMSWVRQAPGKGLEWVGVISAGGNTYYANWAHGRFTISRDTSKNTVYLQMNSLRAEDTAVYFCARGDDGYTNAAYVSNLWGQGTLVTVSS VL: EIVMTQSPSTLSASVGDRVIITCQASQSISSWLSWYQQKPGKAPKLLIYKASTLASGVPSRFSGSGSGAEFTLTISSLQPDDFATYYCQSYFDSTTIAFGQGTKLTVL | binds |
| MYT11055 (antibody, V domains shown, MYT9361 HC variant) VH: EVQLVESGGGLVQPGGSLRLSCTASGLSLSSYWMSWVRQAPGKGLEWVGVISAGGNTYYANWAKGRFTISRDTSKNTVYLQMNSLRAEDTAVYFCARHDDGYTNAAYVSNLWGQGTLVTVSS VL: EIVMTQSPSTLSASVGDRVIITCQASQSISSWLSWYQQKPGKAPKLLIYKASTLASGVPSRFSGSGSGAEFTLTISSLQPDDFATYYCQSYFDSTTIAFGQGTKLTVL | binds |
| MYT11047 (antibody, V domains shown, MYT9361 HC variant) VH: EVQLVESGGGLVQPGGSLRLSCTASGLSLSSYWMSWVRQAPGKGLEWVGVISAGGNTYYHNWAKGRFTISRDTSKNTVYLQMNSLRAEDTAVYFCARGDDGYTNAAYVSNLWGQGTLVTVSS VL: EIVMTQSPSTLSASVGDRVIITCQASQSISSWLSWYQQKPGKAPKLLIYKASTLASGVPSRFSGSGSGAEFTLTISSLQPDDFATYYCQSYFDSTTIAFGQGTKLTVL | binds |

Now from value to binder:

| binding result | Binder |
| --- | --- |
| binds | MYT11061 (antibody, V domains shown, MYT9361 HC variant) VH: EVQLVESGGGLVQPGGSLRLSCTASGLSLSSYWMSWVRQAPGKGLEWVGVISAGGNTYYANWAKGRFTISRDTSKNTVYLQMNSLRAEDTAVYFCARGDDGYTHAAYVSNLWGQGTLVTVSS VL: EIVMTQSPSTLSASVGDRVIITCQASQSISSWLSWYQQKPGKAPKLLIYKASTLASGVPSRFSGSGSGAEFTLTISSLQPDDFATYYCQSYFDSTTIAFGQGTKLTVL |
| binds | MYT11064 (antibody, V domains shown, MYT9361 HC variant) VH: EVQLVESGGGLVQPGGSLRLSCTASGLSLSSYWMSWVRQAPGKGLEWVGVISAGGNTYYANWAKGRFTISRDTSKNTVYLQMNSLRAEDTAVYFCARGDDGYTNAAHVSNLWGQGTLVTVSS VL: EIVMTQSPSTLSASVGDRVIITCQASQSISSWLSWYQQKPGKAPKLLIYKASTLASGVPSRFSGSGSGAEFTLTISSLQPDDFATYYCQSYFDSTTIAFGQGTKLTVL |
| binds | MYT11070 (antibody, V domains shown, MYT9361 HC alanine variant) VH: EVQLVESGGGLVQPGGSLRLSCTASGLSLSSYWMSWVRQAPGKGLEWVGVISAGGNTYYANWAKGRFTISRDTSKNTVYLQMNSLRAEDTAVYFCARGADGYTNAAYVSNLWGQGTLVTVSS VL: EIVMTQSPSTLSASVGDRVIITCQASQSISSWLSWYQQKPGKAPKLLIYKASTLASGVPSRFSGSGSGAEFTLTISSLQPDDFATYYCQSYFDSTTIAFGQGTKLTVL |
| binds | MYT11054 (antibody, V domains shown) VH: EVQLVESGGGLVQPGGSLRLSCTASGLSLSSYWMSWVRQAPGKGLEWVGVISAGGNTYYANWAKGRFTISRDTSKNTVYLQMNSLRAEDTAVYFCAHGDDGYTNAAYVSNLWGQGTLVTVSS VL: EIVMTQSPSTLSASVGDRVIITCQASQSISSWLSWYQQKPGKAPKLLIYKASTLASGVPSRFSGSGSGAEFTLTISSLQPDDFATYYCQSYFDSTTIAFGQGTKLTVL |
| binds | MYT11066 (antibody, V domains shown, MYT9361 HC variant) VH: EVQLVESGGGLVQPGGSLRLSCTASGLSLSSYWMSWVRQAPGKGLEWVGVISAGGNTYYANWAKGRFTISRDTSKNTVYLQMNSLRAEDTAVYFCARGDDGYTNAAYVHNLWGQGTLVTVSS VL: EIVMTQSPSTLSASVGDRVIITCQASQSISSWLSWYQQKPGKAPKLLIYKASTLASGVPSRFSGSGSGAEFTLTISSLQPDDFATYYCQSYFDSTTIAFGQGTKLTVL |
| binds | MYT11057 (antibody, V domains shown, MYT9361 HC variant) VH: EVQLVESGGGLVQPGGSLRLSCTASGLSLSSYWMSWVRQAPGKGLEWVGVISAGGNTYYANWAKGRFTISRDTSKNTVYLQMNSLRAEDTAVYFCARGDHGYTNAAYVSNLWGQGTLVTVSS VL: EIVMTQSPSTLSASVGDRVIITCQASQSISSWLSWYQQKPGKAPKLLIYKASTLASGVPSRFSGSGSGAEFTLTISSLQPDDFATYYCQSYFDSTTIAFGQGTKLTVL |
| binds | MYT11071 (antibody, V domains shown, MYT9361 HC alanine variant) VH: EVQLVESGGGLVQPGGSLRLSCTASGLSLSSYWMSWVRQAPGKGLEWVGVISAGGNTYYANWAKGRFTISRDTSKNTVYLQMNSLRAEDTAVYFCARGDAGYTNAAYVSNLWGQGTLVTVSS VL: EIVMTQSPSTLSASVGDRVIITCQASQSISSWLSWYQQKPGKAPKLLIYKASTLASGVPSRFSGSGSGAEFTLTISSLQPDDFATYYCQSYFDSTTIAFGQGTKLTVL |
| binds | MYT11062 (antibody, V domains shown, MYT9361 HC variant) VH: EVQLVESGGGLVQPGGSLRLSCTASGLSLSSYWMSWVRQAPGKGLEWVGVISAGGNTYYANWAKGRFTISRDTSKNTVYLQMNSLRAEDTAVYFCARGDDGYTNHAYVSNLWGQGTLVTVSS VL: EIVMTQSPSTLSASVGDRVIITCQASQSISSWLSWYQQKPGKAPKLLIYKASTLASGVPSRFSGSGSGAEFTLTISSLQPDDFATYYCQSYFDSTTIAFGQGTKLTVL |
